Results published in patent US20190367613A1 (JOUNCE THERAPEUTICS, published 2019).

Assays:
Human ICOS [1] = biological target: T1, Human ICOS (human, UniProt Q9Y6W8 21-199); assay: cell-based or functional assay
T1 sequence: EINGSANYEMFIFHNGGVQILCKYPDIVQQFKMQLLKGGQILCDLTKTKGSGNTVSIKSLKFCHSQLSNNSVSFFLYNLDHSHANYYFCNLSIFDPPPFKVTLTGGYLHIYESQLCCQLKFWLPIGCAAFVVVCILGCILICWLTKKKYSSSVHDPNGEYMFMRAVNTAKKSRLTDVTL

Human ICOS [2] = biological target: T1, Human ICOS; assay: intracellular flow cytometry on permeabilized human PBMCs, streptavidin PE detection

B1: JTX-2011 (antibody, V domains shown)
VH: EVQLVESGGGLVQPGGSLRLSCAASGFTFSDYWMDWVRQAPGKGLVWVSNIDEDGSITEYSPFVKGRFTISRDNAKNTLYLQMNSLRAEDTAVYYCTRWGRFGFDSWGQGTLVTVSS
VL: DIVMTQSPDSLAVSLGERATINCKSSQSLLSGSFNYLTWYQQKPGQPPKLLIFYASTRHTGVPDRFSGSGSGTDFTLTISSLQAEDVAVYYCHHHYNAPPTFGPGTKVDIKR
intracellular IFNγ production in CD4+ T cells (flow cytometry, after tetanus toxoid stimulation) (Human ICOS [1]): 4 fold
intracellular TNFα production in CD4+ T cells (flow cytometry, after tetanus toxoid stimulation) (Human ICOS [1]): 4 fold

B2: M13 anti-ICOS detection antibody (antibody, V domains shown)
VH: EVQLQQSGAELVRPGAVVKLSCKASGFDIKDYYMHWVQQRPEQGLEWIGWIDPENGNAVYDPQFQGKASITADTSSNTAYLQLSSLTSEDTAVYYCASDYYGSKGYLDVWGAGTTVTVSS
VL: QIVLTQSPTIMSASPGEKVTITCSASSSVSYMHWFQQKPGTSPKLWIYSTSNLASGVPARFGGSRSGTSYSLTISRMEAEDAATYYCQQRSSYPFTFGSGTKLEIK
notes: also called 2M13; biotinylated M13 anti-ICOS detection antibody
binding result (Human ICOS [2]): binds
